One block for each substance: values may come before it.
Legend:
BSA control in PBS [1] = molecular target: BSA control in PBS (UniProt P02769); assay: ELISA mean; BSA-PBS
[2] = molecular target: denatured or misfolded SOD1 (SOD1 in denaturation buffer with 6M GdnHCl) (Homo sapiens (Human)) (UniProt P00441); assay: ELISA mean; SOD-Gnd
[3] = molecular target: natively folded SOD1 (SOD1 in PBS) (Homo sapiens (Human)) (UniProt P00441); assay: ELISA mean; SOD-PBS
BSA control in PBS [4] = molecular target: BSA control in PBS (UniProt P02769); assay: ELISA rep1; BSA-PBS
[5] = molecular target: denatured or misfolded SOD1 (SOD1 in denaturation buffer with 6M GdnHCl) (Homo sapiens (Human)) (UniProt P00441); assay: ELISA rep1; SOD-Gnd
[6] = molecular target: natively folded SOD1 (SOD1 in PBS) (Homo sapiens (Human)) (UniProt P00441); assay: ELISA rep1; SOD-PBS
BSA control in PBS [7] = molecular target: BSA control in PBS (UniProt P02769); assay: ELISA rep2; BSA-PBS
[8] = molecular target: denatured or misfolded SOD1 (SOD1 in denaturation buffer with 6M GdnHCl) (Homo sapiens (Human)) (UniProt P00441); assay: ELISA rep2; SOD-Gnd
[9] = molecular target: natively folded SOD1 (SOD1 in PBS) (Homo sapiens (Human)) (UniProt P00441); assay: ELISA rep2; SOD-PBS
BSA control in PBS [10] = molecular target: BSA control in PBS (UniProt P02769); assay: ELISA rep3; BSA-PBS
[11] = molecular target: denatured or misfolded SOD1 (SOD1 in denaturation buffer with 6M GdnHCl) (Homo sapiens (Human)) (UniProt P00441); assay: ELISA rep3; SOD-Gnd
[12] = molecular target: natively folded SOD1 (SOD1 in PBS) (Homo sapiens (Human)) (UniProt P00441); assay: ELISA rep3; SOD-PBS
[13] = molecular target: SOD1 oxidized with a mixture of ascorbate and copperchloride (Homo sapiens (Human)) (UniProt P00441); assay: ELISA mean; 0 hr CuCl
[14] = molecular target: SOD1 oxidized with a mixture of ascorbate and copperchloride (Homo sapiens (Human)) (UniProt P00441); assay: ELISA mean; 1 hr CuCl
[15] = molecular target: SOD1 oxidized with H2O2 (Homo sapiens (Human)) (UniProt P00441); assay: ELISA mean; 1 mM H2O2
[16] = molecular target: SOD1 oxidized with a mixture of ascorbate and copperchloride (Homo sapiens (Human)) (UniProt P00441); assay: ELISA mean; 3 hr CuCl
[17] = molecular target: SOD1 oxidized with a mixture of ascorbate and copperchloride (Homo sapiens (Human)) (UniProt P00441); assay: ELISA mean; 6 hr CuCl
[18] = molecular target: SOD1 oxidized with a mixture of ascorbate and copperchloride (Homo sapiens (Human)) (UniProt P00441); assay: ELISA rep1; 0 hr CuCl
[19] = molecular target: SOD1 oxidized with a mixture of ascorbate and copperchloride (Homo sapiens (Human)) (UniProt P00441); assay: ELISA rep1; 1 hr CuCl
[20] = molecular target: SOD1 oxidized with H2O2 (Homo sapiens (Human)) (UniProt P00441); assay: ELISA rep1; 1 mM H2O2
[21] = molecular target: SOD1 oxidized with a mixture of ascorbate and copperchloride (Homo sapiens (Human)) (UniProt P00441); assay: ELISA rep1; 3 hr CuCl
[22] = molecular target: SOD1 oxidized with a mixture of ascorbate and copperchloride (Homo sapiens (Human)) (UniProt P00441); assay: ELISA rep1; 6 hr CuCl
[23] = molecular target: SOD1 oxidized with a mixture of ascorbate and copperchloride (Homo sapiens (Human)) (UniProt P00441); assay: ELISA rep2; 0 hr CuCl
[24] = molecular target: SOD1 oxidized with a mixture of ascorbate and copperchloride (Homo sapiens (Human)) (UniProt P00441); assay: ELISA rep2; 1 hr CuCl
[25] = molecular target: SOD1 oxidized with H2O2 (Homo sapiens (Human)) (UniProt P00441); assay: ELISA rep2; 1 mM H2O2
[26] = molecular target: SOD1 oxidized with a mixture of ascorbate and copperchloride (Homo sapiens (Human)) (UniProt P00441); assay: ELISA rep2; 3 hr CuCl
[27] = molecular target: SOD1 oxidized with a mixture of ascorbate and copperchloride (Homo sapiens (Human)) (UniProt P00441); assay: ELISA rep2; 6 hr CuCl
[28] = molecular target: SOD1 oxidized with a mixture of ascorbate and copperchloride (Homo sapiens (Human)) (UniProt P00441); assay: ELISA rep3; 0 hr CuCl
[29] = molecular target: SOD1 oxidized with a mixture of ascorbate and copperchloride (Homo sapiens (Human)) (UniProt P00441); assay: ELISA rep3; 1 hr CuCl
[30] = molecular target: SOD1 oxidized with H2O2 (Homo sapiens (Human)) (UniProt P00441); assay: ELISA rep3; 1 mM H2O2
[31] = molecular target: SOD1 oxidized with a mixture of ascorbate and copperchloride (Homo sapiens (Human)) (UniProt P00441); assay: ELISA rep3; 3 hr CuCl
[32] = molecular target: SOD1 oxidized with a mixture of ascorbate and copperchloride (Homo sapiens (Human)) (UniProt P00441); assay: ELISA rep3; 6 hr CuCl
[33] = molecular target: SOD1 oxidized with H2O2 (Homo sapiens (Human)) (UniProt P00441); assay: ELISA mean; 10 mM H2O2
[34] = molecular target: SOD1 oxidized with H2O2 (Homo sapiens (Human)) (UniProt P00441); assay: ELISA rep1; 10 mM H2O2
[35] = molecular target: SOD1 oxidized with H2O2 (Homo sapiens (Human)) (UniProt P00441); assay: ELISA rep2; 10 mM H2O2
[36] = molecular target: SOD1 oxidized with H2O2 (Homo sapiens (Human)) (UniProt P00441); assay: ELISA rep3; 10 mM H2O2
[37] = molecular target: SOD1 oxidized with H2O2 (Homo sapiens (Human)) (UniProt P00441); assay: ELISA mean; 100 uM H2O2
[38] = molecular target: SOD1 oxidized with H2O2 (Homo sapiens (Human)) (UniProt P00441); assay: ELISA rep1; 100 uM H2O2
[39] = molecular target: SOD1 oxidized with H2O2 (Homo sapiens (Human)) (UniProt P00441); assay: ELISA rep2; 100 uM H2O2
[40] = molecular target: SOD1 oxidized with H2O2 (Homo sapiens (Human)) (UniProt P00441); assay: ELISA rep3; 100 uM H2O2
BSA control in GdnHCl [41] = molecular target: BSA control in GdnHCl (UniProt P02769); assay: ELISA mean
BSA control in PBS [42] = molecular target: BSA control in PBS (UniProt P02769); assay: ELISA mean
[43] = molecular target: denatured or misfolded SOD1 (SOD1 in denaturation buffer with 6M GdnHCl) (Homo sapiens (Human)) (UniProt P00441); assay: ELISA mean
[44] = molecular target: natively folded SOD1 (SOD1 in PBS) (Homo sapiens (Human)) (UniProt P00441); assay: ELISA mean
BSA control in GdnHCl [45] = molecular target: BSA control in GdnHCl (UniProt P02769); assay: ELISA rep1
BSA control in PBS [46] = molecular target: BSA control in PBS (UniProt P02769); assay: ELISA rep1
[47] = molecular target: denatured or misfolded SOD1 (SOD1 in denaturation buffer with 6M GdnHCl) (Homo sapiens (Human)) (UniProt P00441); assay: ELISA rep1
[48] = molecular target: natively folded SOD1 (SOD1 in PBS) (Homo sapiens (Human)) (UniProt P00441); assay: ELISA rep1
BSA control in GdnHCl [49] = molecular target: BSA control in GdnHCl (UniProt P02769); assay: ELISA rep2
BSA control in PBS [50] = molecular target: BSA control in PBS (UniProt P02769); assay: ELISA rep2
[51] = molecular target: denatured or misfolded SOD1 (SOD1 in denaturation buffer with 6M GdnHCl) (Homo sapiens (Human)) (UniProt P00441); assay: ELISA rep2
[52] = molecular target: natively folded SOD1 (SOD1 in PBS) (Homo sapiens (Human)) (UniProt P00441); assay: ELISA rep2
[53] = molecular target: DSE-2-BSA antigen (human); assay: indirect ELISA Exp #1
[54] = molecular target: DSE-2-BSA antigen (human); assay: indirect ELISA Exp #2
[55] = molecular target: denatured or misfolded SOD1 (SOD1 in denaturation buffer with 6M GdnHCl) (Homo sapiens (Human)) (UniProt P00441); assay: ELISA, SOD1 minus BSA
[56] = molecular target: natively folded SOD1 (SOD1 in PBS) (Homo sapiens (Human)) (UniProt P00441); assay: ELISA, SOD1 minus BSA
[57] = molecular target: human transferrin (human) (UniProt P02787); assay: indirect ELISA, control antigen
UniProt P02787, sequence (P02787 20-698 limits assumed): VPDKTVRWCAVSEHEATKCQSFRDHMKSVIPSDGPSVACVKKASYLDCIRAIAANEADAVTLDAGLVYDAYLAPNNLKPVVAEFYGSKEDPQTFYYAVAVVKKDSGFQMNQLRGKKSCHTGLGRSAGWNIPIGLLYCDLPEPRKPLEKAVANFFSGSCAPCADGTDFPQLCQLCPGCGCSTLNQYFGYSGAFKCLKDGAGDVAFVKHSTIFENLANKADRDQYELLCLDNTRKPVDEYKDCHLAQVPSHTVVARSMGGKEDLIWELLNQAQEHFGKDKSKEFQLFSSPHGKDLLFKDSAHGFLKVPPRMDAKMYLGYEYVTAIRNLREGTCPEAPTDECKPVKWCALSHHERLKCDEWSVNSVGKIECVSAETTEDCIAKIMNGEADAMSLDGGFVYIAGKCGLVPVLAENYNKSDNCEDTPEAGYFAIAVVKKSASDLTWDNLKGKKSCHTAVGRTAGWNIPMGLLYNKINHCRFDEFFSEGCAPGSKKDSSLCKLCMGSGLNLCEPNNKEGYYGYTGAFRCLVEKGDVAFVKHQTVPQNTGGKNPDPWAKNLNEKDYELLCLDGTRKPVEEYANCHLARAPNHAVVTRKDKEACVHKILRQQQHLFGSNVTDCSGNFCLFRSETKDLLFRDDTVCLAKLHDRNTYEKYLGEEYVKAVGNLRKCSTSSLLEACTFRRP

[58] = molecular target: denatured or misfolded SOD1 (SOD1 in denaturation buffer with 6M GdnHCl) (Homo sapiens (Human)) (UniProt P00441); assay: ELISA, unfolded vs natively folded SOD1

- absorbance (BSA control in PBS [1]): 0.103
- absorbance [2]: 1.24
- absorbance [3]: 0.369
- absorbance (BSA control in PBS [4]): 0.12
- absorbance [5]: 1.24
- absorbance [6]: 0.357
- absorbance (BSA control in PBS [7]): 0.098
- absorbance [8]: 1.25
- absorbance [9]: 0.362
- absorbance (BSA control in PBS [10]): 0.091
- absorbance [11]: 1.23
- absorbance [12]: 0.389
- absorbance [13]: 0.668
- absorbance [14]: 1.03
- absorbance [15]: 0.77
- absorbance [16]: 1.07
- absorbance [17]: 1.02
- absorbance [18]: 0.67
- absorbance [19]: 1.02
- absorbance [20]: 0.776
- absorbance [21]: 1.06
- absorbance [22]: 1.04
- absorbance [23]: 0.669
- absorbance [24]: 1.03
- absorbance [25]: 0.752
- absorbance [26]: 1.06
- absorbance [27]: 0.987
- absorbance [28]: 0.664
- absorbance [29]: 1.03
- absorbance [30]: 0.781
- absorbance [31]: 1.08
- absorbance [32]: 1.04
- absorbance [33]: 0.851
- absorbance [34]: 0.836
- absorbance [35]: 0.84
- absorbance [36]: 0.878
- absorbance [37]: 0.473
- absorbance [38]: 0.489
- absorbance [39]: 0.476
- absorbance [40]: 0.453
Substance: anti-DSE2 IgG mAb clone 10E11C11 (antibody)

- OD450 (BSA control in GdnHCl [41]): 0.164 OD450
- OD450 (BSA control in PBS [42]): 0.156 OD450
- OD450 [43]: 2.15 OD450
- OD450 [44]: 0.41 OD450
- OD450 (BSA control in GdnHCl [45]): 0.165 OD450
- OD450 (BSA control in PBS [46]): 0.161 OD450
- OD450 [47]: 2.19 OD450
- OD450 [48]: 0.257 OD450
- OD450 (BSA control in GdnHCl [49]): 0.162 OD450
- OD450 (BSA control in PBS [50]): 0.15 OD450
- OD450 [51]: 2.1 OD450
- OD450 [52]: 0.563 OD450
- absorbance (BSA control in PBS [1]): 0.077
- absorbance [2]: 2.29
- absorbance [3]: 0.338
- absorbance (BSA control in PBS [4]): 0.078
- absorbance [5]: 2.29
- absorbance [6]: 0.34
- absorbance (BSA control in PBS [7]): 0.076
- absorbance [8]: 2.29
- absorbance [9]: 0.335
- OD450 [53]: 1.98 OD450
- OD450 [54]: 1.91 OD450
- S-N (U) [55]: 1.99 OD450
- S-N (F) [56]: 0.251 OD450
- absorbance [13]: 0.558
- absorbance [14]: 1.51
- absorbance [15]: 0.731
- absorbance [16]: 1.67
- absorbance [17]: 1.43
- absorbance [18]: 0.527
- absorbance [19]: 1.59
- absorbance [20]: 0.744
- absorbance [21]: 1.72
- absorbance [22]: 1.38
- absorbance [23]: 0.59
- absorbance [24]: 1.44
- absorbance [25]: 0.717
- absorbance [26]: 1.62
- absorbance [27]: 1.49
- absorbance [33]: 0.745
- absorbance [34]: 0.763
- absorbance [35]: 0.726
- absorbance [37]: 0.43
- absorbance [38]: 0.436
- absorbance [39]: 0.425
- OD450 [57]: 0.081 OD450
- U/F [58]: 7.93 fold
Substance: anti-DSE2 hybridoma clone 3H1 (antibody)
